Results on two molecules are retold here after article PMC9268357 (Science (New York, N.y.), 2021).

Assay [1] deals with prefusion-stabilized OC43 S ectodomain trimer (Human coronavirus OC43, isolate not …, UniProt P36334, stabilised). Description: cell-based or functional assay.
For assay [2], the target named is SARS-CoV-2 or SARS-CoV stem helix peptide (SARS-CoV-2; region stated to be …, biotin). Description: BLI. The conditions noted are these: both partners purified.
Assay [3] concerns the target T1, prefusion-stabilized HKU1 S ectodomain trimer (Human coronavirus HKU1, isolate not …, UniProt Q5MQD0, stabilised). In words: ELISA. Particulars: both partners purified.
Assay [4] addresses T1, prefusion-stabilized HKU1 S ectodomain …. In words: SPR; S2P6 Fab fragment and S glycoproteins (fig. S1, G and H). The conditions noted are these: both partners purified.

B1: S2P6 monoclonal antibody (antibody, V domains shown)
VH: EVQLVQSGAEVKKPGASVKVSCKASGYTFTSQYMHWVRQAPGQGLEWIGIINPSGVHTSYAQKFQGRVTLTRDTSTSTLYMELSSLRSEDTAVYYCARGSPKGAFDYWGQGTLVTVSS
VL: not shown
notes: also called S2P6 mAb; S2P6 IgG; copies: 2 + 2
On to B1, for which the “neutralization of VSV pseudotyped with OC43 S, IC50” value in assay [1] stood at 1.3 µg/mL. For the same molecule, the binding result in assay [2] and in assay [3] was “binds” each time.

B2: S2P6 Fab fragment (Fab, V domains shown)
VH: EVQLVQSGAEVKKPGASVKVSCKASGYTFTSQYMHWVRQAPGQGLEWIGIINPSGVHTSYAQKFQGRVTLTRDTSTSTLYMELSSLRSEDTAVYYCARGSPKGAFDYWGQGTLVTVSS
VL: not shown
Take B2: in assay [4], the Kd was ~120 nM.
